“And” between values parts separate entries of the source, which are not always exact repeats. Identical values can stand only once.
Tests used:
[1] = biological target: recombinant human CD40 (human) (UniProt P25942); assay: SPR
[2] = biological target: FcγR-Ia (Homo sapiens, UniProt P12314); assay: SPR
[3] = tested on: tumors; assay: Mouse tumor model, SIRPα-Fc-OX40L and checkpoint antibodies (Example 14)
[4] = tested on: macrophages co-cultured with Toledo lymphoma cells; assay: qRT-PCR of macrophages sorted from Toledo lymphoma co-cultures; type: cell-based, human; conditions: qRT-PCR on macrophages isolated by FACS from Toledo co-cultures
Method: FIG. 8D: Macrophage:Toledo lymphoma co-cultures were harvested 2 hours into phagocytosis assays in the presence of rituximab ([…]), SIRPα-Fc-CD40L ([…]), or the combination of both agents. Macrophages were isolated by CD11b+FACS, RNA was prepared, cDNA synthesized, and gene expression (IFNa1, IFNb1, CD80, and CD86) assessed by qRT-PCR. Fold change was calculated using DDCT and values obtained from the housekeeping gene ACTB, and the corresponding values from untreated samples. […] After 2 hours, co-cultures were isolated from tissue culture vessels and were stained with a fluorescently conjugated CD11b antibody to discriminate macrophages. Cells were then assessed by flow cytometry for the co-localization of fluorescent signal from both cells types. […] After 24-hours type I interferon induced luminescence was assessed using a luminometer. The maximum luminescence (RLU) from each experiment was set to 1, and all other samples were normalized accordingly. […]
RNA was prepared from macrophages isolated using fluorescent activated cell sorting (FACS) from SIRPα-Fc-CD40L/Rituximab treated co-cultures macrophages and Toledo lymphoma cells. The RNA was assessed by gRT-PCR for expression of IFNα1 and IFNβ1, and the macrophage activation markers CD80 and CD86.

[5] = biological target: T1, recombinant mouse CD47 (mouse, UniProt Q61735 19-140, limits assumed); assay: dual ELISA: coat mCD47-Fc, titrated mSIRPα-Fc-CD40L, detect mCD40-His, tertiary anti-his-HRP, OD450. Signal needs both CD47 and CD40 to be bound.
T1 construct: also called murine CD47
T1 sequence (looked up): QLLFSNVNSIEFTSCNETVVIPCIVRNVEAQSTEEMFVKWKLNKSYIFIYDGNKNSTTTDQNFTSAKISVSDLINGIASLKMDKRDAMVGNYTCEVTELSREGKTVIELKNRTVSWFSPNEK

[6] = biological target: T2, recombinant mouse CD40 (mouse, UniProt P27512 20-193, limits assumed); assay: dual ELISA: coat mCD47-Fc, titrated mSIRPα-Fc-CD40L, detect mCD40-His, tertiary anti-his-HRP, OD450. This is the same curve as the CD47 row. mCD40-His is the detecting receptor.
T2 construct: also called murine CD40
T2 sequence (P27512 20-193 limits assumed): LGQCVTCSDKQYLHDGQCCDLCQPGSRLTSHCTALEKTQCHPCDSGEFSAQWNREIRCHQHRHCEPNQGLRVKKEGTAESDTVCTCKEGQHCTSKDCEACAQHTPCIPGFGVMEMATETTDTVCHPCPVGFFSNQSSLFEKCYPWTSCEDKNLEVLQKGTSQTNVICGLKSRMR

Chain of FcγR-Ia (P12314 16-288 limits assumed): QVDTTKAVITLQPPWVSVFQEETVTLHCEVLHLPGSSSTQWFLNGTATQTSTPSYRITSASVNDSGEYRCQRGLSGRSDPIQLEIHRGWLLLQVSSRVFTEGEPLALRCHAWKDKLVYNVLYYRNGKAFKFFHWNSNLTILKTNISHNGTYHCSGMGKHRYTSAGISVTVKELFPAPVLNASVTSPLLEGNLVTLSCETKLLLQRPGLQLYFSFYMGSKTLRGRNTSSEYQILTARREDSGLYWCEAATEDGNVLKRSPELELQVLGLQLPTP
Chain of recombinant human CD40 (human) (P25942 21-193 limits assumed): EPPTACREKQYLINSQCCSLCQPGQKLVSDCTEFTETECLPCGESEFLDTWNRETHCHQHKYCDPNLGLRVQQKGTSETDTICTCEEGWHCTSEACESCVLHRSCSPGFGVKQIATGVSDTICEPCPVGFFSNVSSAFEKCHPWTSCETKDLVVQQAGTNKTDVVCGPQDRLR

Fc-CD40L (Fc fusion)
Kd [1]: 1.15 nM
koff [1]: 0.000351 s⁻¹
kon [1]: 304000 M⁻¹ s⁻¹

IgG1 (antibody)
Kd [2]: 8.42 nM
koff [2]: 0.000156 s⁻¹
kon [2]: 18400 M⁻¹ s⁻¹

SIRPα(CD172a)-Fc-OX40L: Chimeric protein: ECD of SIRPα and ECD of OX40L fused via an antibody Fc domain (human sequence SEQ ID NO: 61)
tumor size ([3]; mouse, in vivo): effective in reducing tumor size
survival ([3]; sixteenth day following treatment): had any survivors by the sixteenth day following treatment

rituximab: anti-CD20 antibody [reference compound]
macrophage activation (CD80, CD86) and expression of type I interferon genes (IFNα1, IFNβ1) [4]: induced macrophage activation and the expression of type I interferon genes

B1: murine SIRPα-Fc-CD40L chimeric protein (Fc fusion)
chain: KELKVTQPEKSVSVAAGDSTVLNCTLTSLLPVGPIRWYRGVGPSRLLIYSFAGEYVPRIRNVSDTTKRNNMDFSIRISNVTPADAGIYYCVKFQKGSSEPDTEIQSGGGTEVYVLAKPSPPEVSGPADRGIPDQKVNFTCKSHGFSPRNITLKWFKDGQELHPLETTVNPSGKNVSYNISSTVRVVLNSMDVNSKVICEVAHITLDRSPLRGIANLSNFIRVSPTVKVTQQSPTSMNQVNLTCRAERFYPEDLQLIWLENGNVSRNDTPKNLTKNTDGTYNYTSLFLVNSSAHREDVVFTCQVKHDQQPAITRNHTVLGFAHSSDQGSMQTFPDNNATHNWNHRRLDKVEEEVNLHEDFVFIKKLKRCNKGEGSLSLLNCEEMRRQFEDLVKDITLNKEEKKENSFEMQRGDEDPQIAAHVVSEANSNAASVLQWAKKGYYTMKSNLVMLENGKQLTVKREGLYYVYTQVTFCSNREPSSQRPFIVGLWLKPSSGSERILLKAANTHSSSQLCEQQSVHLGGVFELQAGASVFVNVTEASQVIHRVGFSSFGLLKL
EC50 [5]: 7.37 nM and 8.73 nM
EC50 [6]: 7.37 nM and 8.73 nM

From patent publication US20200071380A1, “COMBINATION THERAPIES COMPRISING SIRP ALPHA-BASED CHIMERIC PROTEINS” (Shattuck Labs, Inc., priority 2018, published 2020)
